Measured values: patent US20230340106A1 (published 2023)
Numbering of substitutions follows the chain as printed.

Key:
[1] = target: T1, human IL-2 (recombinant IL-2, Humanzyme) (human, UniProt P60568 21-153); assay: SPR as in Example 1 (value as in Table 3)
T1 construct: It may include the signal peptide; also called hIL-2; interleukin-2
Method: (§1) Experiments were performed at 25° C. using a 30 μL/minute flow rate in 0.01 M HEPES pH 7.4, 0.15 M NaCl and 0.005% v/v surfactant P20 (HBS-P) buffer. After each cycle, the chip surface was regenerated with 3 M MgCl₂ and new antibody captured. […] Data were analyzed using the Biacore T200 Evaluation software, the signal from the adjacent control flow cell with only the capture antibody immobilized was background subtracted along with buffer only injections for each antibody. A 1:1 Langmuir binding model was used to fit all binding curves.

[2] = target: T2, recombinant cynomolgus monkey (Macaca fascicularis) IL-2 (cynomolgus monkey (Macaca fascicularis), UniProt Q29615 21-154); assay: SPR, IgG captured, cyno IL-2 1-100 nM; 1:1 Langmuir fit or steady-state affinity
T2 construct: also called cyno IL-2; cynomolgus monkey IL-2
Method: as §1
(§2) A 1:1 Langmuir binding model was used to fit binding curves or the steady-state affinity constant calculated from a concentration-response curve.

[3] = target: T1, human IL-2 (recombinant IL-2, Humanzyme); assay: SPR (Biacore T200), IgG captured by anti-human IgG, IL-2 injected, 25 C, 1:1 Langmuir fit
Method: as §1

d1C7/IL-2 complex = target: T3, d1C7/IL-2 complex (human, UniProt P60568 21-153); assay: SPR (Biacore T200), complex injected over biotinylated receptor on a streptavidin chip
T3 construct: also called clone d1C7/IL-2 complex
Method: (§3) Experiments were performed at 25° C. using a 10 μL/minute flow rate in 10 mM HEPES (pH 7.4), 150 mM NaCl and 0.005% v/v Surfactant P20 buffer. […] Data was background subtracted using the adjacent control flow cell and buffer only injections.

IL-2/F5.1.11 Fab complex = IL-2/F5.1.11 Fab complex (human, UniProt P60568 21-153); assay: SPR (Biacore T200), equilibrium analysis, 1-500 nM IL-2 pre-complexed with excess Fab over biotinylated IL-2Rα
Method: as §3, with “(pH7.4),” for “(pH 7.4),”, “injections. The affinity of the interaction was calculated from concentration-response relationship at equilibrium.” for “injections.”

[4] = target: T1, human IL-2 (recombinant IL-2, Humanzyme); assay: SPR as in Example 1 (IgG captured, IL-2 injected)
Method: as §1

[5] = target: T2, recombinant cynomolgus monkey (Macaca …); assay: SPR, IgG captured, cyno IL-2 1-100 nM; concentration-response insufficient to calculate the affinity
Method: as §1, §2

[6] = target: T1, human IL-2 (recombinant IL-2, Humanzyme); assay: SPR as in Example 1; reference is parental F5.1.11
Method: as §1

[7] = target: T1, human IL-2 (recombinant IL-2, Humanzyme); assay: SPR as in Example 1 (value as in Table 4)
Method: as §1

[8] = target: T1, human IL-2 (recombinant IL-2, Humanzyme); assay: method not stated in the sentence (presumably SPR as in Example 1)

T2 sequence (Q29615 21-154 limits assumed): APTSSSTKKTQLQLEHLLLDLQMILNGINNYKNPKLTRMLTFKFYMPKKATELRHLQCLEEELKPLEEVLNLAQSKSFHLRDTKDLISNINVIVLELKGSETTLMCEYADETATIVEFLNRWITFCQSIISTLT
T1 sequence (P60568 21-153 limits assumed): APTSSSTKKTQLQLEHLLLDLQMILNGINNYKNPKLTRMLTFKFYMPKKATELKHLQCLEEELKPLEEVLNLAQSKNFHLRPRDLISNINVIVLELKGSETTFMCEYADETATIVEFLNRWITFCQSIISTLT
Chain of IL-2/F5.1.11 Fab complex (P60568 21-153 limits assumed, one chain of several): as the sequence (P60568 21-153 limits assumed) above
T3 sequence (P60568 21-153 limits assumed, one chain of several): as the sequence (P60568 21-153 limits assumed) above

B1: 16C3 (antibody, V domains shown)
VH: QVQLVQSGGGVVQPGRSLRLSCAASGFTFSNYAMNWVRQAPGKGLEWVTLISYDGSQKYYADSVKGRFTTSRDNSKNTLYLQMNSLRAEDTAVYYCARDSTTLGAFDVWGQGTMVTVSS
VL: SYELTQPPSLSVSPGQTATISCSGDAFPRKFAYWYQQKSGQAPVLVIYEDTRRPSGIPERFSGSSSGTMATLTISGAQVEDEADYFCYSTDTTGTHRVFGGGTKLTVL
Kd [1]: 0.637 nM
Kd [2]: 0.516 nM
Kd [3]: 0.637 nM
koff [3]: 0.000619 s⁻¹
kon [3]: 989000 M⁻¹ s⁻¹

B2: F4.7.8 (antibody, V domains shown)
VH: not shown
VL: AIQLTQSPSSLSASVGDRVTITCQASQDIFNLLNWYRQKPGKAPDLLVYRASNLETGVPSRFSGSGSGTDFTFTISSLQPEDVGTYYCQQSANLPLTFGGGTKVEIK
notes: Only the variable domains are tied to the clone
Kd [1]: 13.4 nM
Kd [2]: 92.4 nM
Kd [3]: 13.4 nM
koff [3]: 0.0031 s⁻¹
kon [3]: 231000 M⁻¹ s⁻¹

B3: recombinant IL-2Rβ (receptor, UniProt P14784 27-239, looked up)
chain: AVNGTSQFTCFYNSRANISCVWSQDGALQDTSCQVHAWPDRRRWNQTCELLPVSQASWACNLILGAPDSQKLTTVDIVTLRVLCREGVRWRVMAIQDFKPFENLRLMAPISLQVVHVETHRCNISWEISQASHYFERHLEFEARTLSPGHTWEEAPLLTLKQKQEWICLETLTPDTQYEFQVRVKPLQGEFTTWSPWSQPLAFRTKPAALGKD
modifications: biotin labeled
notes: also called CD122; IL2Rb
binding result (d1C7/IL-2 complex): no binding

B4: d1C7 (antibody, V domains shown)
VH: QVQLVQSGAEVKKPGSSVKVSCKASGGTFSSYAISWVRQAPGQGLEWMGGIIPIFGTANYAQKFQGRVTITADESTSTAYMELSSLRSEDTAVYYCARVDRYYNWNYFLGSFDYWGQGTLVTVSS
VL: SYVLTQPPSVSVAPGKTARITCGGNNIRSKSVHWYQQKPGQAPVVVIYYDSDRPSGIPERISGSNSGNTATLTISRVEAGDEADYFCQVWDSSSDHHVFGGGTKLTVL
notes: Only the variable domains are tied to the clone; also called clone d1C7
Kd [1]: 0.536 nM
Kd [2]: ≥ 108 nM
Kd [3]: 0.536 nM
koff [3]: 0.000607 s⁻¹
kon [3]: 1.13e+06 M⁻¹ s⁻¹

B5: recombinant IL-2Rα (receptor, UniProt P01589 22-213, looked up)
chain: ELCDDDPPEIPHATFKAMAYKEGTMLNCECKRGFRRIKSGSLYMLCTGNSSHSSWDNQCQCTSSATRNTTKQVTPQPEEQKERKTTEMQSPMQPVDQASLPGHCREPPPWENEATERIYHFVVGQMVYYQCVQGYRALHRGPAESVCKMTHGKTRWTQPQLICTGEMETSQFPGEEKPQASPEGRPESETSC
modifications: biotin labeled
notes: also called IL-2α; CD25
Kd (IL-2/F5.1.11 Fab complex): 70.1 nM

B6: F5.1.11 (antibody, V domains shown)
VH: QLQLQESGPGLVKPSQTLSLTCTVSGGSISSGGYYWSWIRQHPGKGLEWIGYIYYSGSTYYNPSLKSRVTISVDTSKNQFSLKLSSVTAADTAVYYCARTPTVTGDWFDPWGRGTLVTVSS
VL: NFMLTQPHSVSESPGKTVTISCTRSSGSIASNYVQWYQQRPGSSPTTVIYEDNQRPSGVPDRFSGSIDSSSNSASLTISGLKTEDEADYYCQSYDSSNVVFGGGTKLTVL
Kd [4]: 1.88 nM
koff [4]: 0.00711 s⁻¹
kon [4]: 3.78e+06 M⁻¹ s⁻¹
Kd [1]: 3.12 nM
binding result [5]: binds
Kd [3]: 3.12 nM
koff [3]: 0.00688 s⁻¹
kon [3]: 2.21e+06 M⁻¹ s⁻¹

B7: F4.7.062 (antibody, V domains shown)
VH: B6 VH with L2V, R113Q
VL: B6 VL
Kd [3]: 1.54 nM
koff [3]: 0.0058 s⁻¹
kon [3]: 3.77e+06 M⁻¹ s⁻¹

B8: F5.1.11.08 (antibody, V domains shown)
VH: B6 VH with Y55K, T59N, Y61W
VL: B6 VL with S93T, S97I, N98D, V100Y
Kd [4]: 0.205 nM
koff [4]: 0.000453 s⁻¹
kon [4]: 2.21e+06 M⁻¹ s⁻¹

B9: F5.1.11.04 (antibody, V domains shown)
VH: B6 VH with T59N, Y61W
VL: B6 VL with S96T, S97R, N98D
Kd [4]: 0.624 nM
koff [4]: 0.000458 s⁻¹
kon [4]: 734000 M⁻¹ s⁻¹

B10: F5.1.11.02 (antibody, V domains shown)
VH: B6 VH with Y55K, T59A, N62S
VL: B6 VL with S93T, S97I, N98D, V100Y
notes: also called F5111.2; 5.1.11.2
Kd [4]: 0.114 nM
koff [4]: 0.000574 s⁻¹
kon [4]: 5.05e+06 M⁻¹ s⁻¹
Kd [2]: ~211 nM
fold increase of apparent binding affinity over parental F5.1.11 [6]: 16 fold
Kd [7]: 0.114 nM

B11: F5.1.9.5 (antibody, V domains shown)
VH: EVQLVESGPGLVKPSETLSLTCAVSGYSISSGYYWGWIRQPPGKGLEWIGLSYHTRSTYYDPSLKSRVTISVDTSKNQFSLKLSSVTAADTAVYYCAREAYSDRAFDIWGQGTMVTVSS
VL: B6 VL with V18I, N32D, T46S, E51A, G58E, K82M, S97N, N98I, V100I
Kd [8]: 0.663 nM
koff [8]: 0.000818 s⁻¹
kon [8]: 1.23e+06 M⁻¹ s⁻¹

B12: F4.7.6 (antibody, V domains shown)
VH: B6 VH with Q1E, L2V, R113Q
VL: B6 VL with N98T
Kd [3]: 3.03 nM
koff [3]: 0.00738 s⁻¹
kon [3]: 2.44e+06 M⁻¹ s⁻¹
